Data as given in patent US20040053329A1 (published 2004).

Biological target: T1, endoglin (CD105) of human endothelial cells (HUVEC and other endothelial cells) (human, UniProt P17813 26-658)
T1 construct: whole, on cells; In the immunoprecipitation the protein came from a non-denaturing lysate of 35S-methionine-labelled HUVEC; In immunofluorescence and flow cytometry it was on cells; also called endoglin-expressing HUVEC; endoglin-expressing endothelial cells
T1 sequence (looked up): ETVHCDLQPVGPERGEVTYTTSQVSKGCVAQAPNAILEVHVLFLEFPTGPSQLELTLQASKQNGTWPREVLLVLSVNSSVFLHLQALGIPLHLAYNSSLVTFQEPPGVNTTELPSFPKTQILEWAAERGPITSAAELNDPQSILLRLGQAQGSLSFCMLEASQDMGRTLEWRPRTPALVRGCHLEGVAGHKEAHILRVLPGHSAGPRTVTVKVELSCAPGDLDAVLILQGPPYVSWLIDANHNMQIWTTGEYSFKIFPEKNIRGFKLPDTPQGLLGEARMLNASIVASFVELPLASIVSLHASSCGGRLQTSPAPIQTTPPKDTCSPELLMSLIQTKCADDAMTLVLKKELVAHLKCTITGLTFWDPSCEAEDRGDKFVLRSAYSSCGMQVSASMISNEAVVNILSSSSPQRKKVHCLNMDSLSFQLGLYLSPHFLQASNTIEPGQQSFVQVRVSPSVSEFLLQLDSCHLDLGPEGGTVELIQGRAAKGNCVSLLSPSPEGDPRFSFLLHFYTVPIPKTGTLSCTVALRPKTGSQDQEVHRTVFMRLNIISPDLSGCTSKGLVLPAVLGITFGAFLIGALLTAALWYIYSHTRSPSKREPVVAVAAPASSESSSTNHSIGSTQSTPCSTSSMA
Experiment: immunoprecipitation from non-denaturing lysate of 35S-methionine-labelled HUVEC
Experimental: Endoglin from primary human umbilical cord endothelial cells (HUVEC) was detected by means of immunoprecipitation under non-denaturing conditions. For this purpose, the [³⁵S]-methionine-labelled endothelial cells were lysed with lysing buffer (10 mM Tris-HCl pH 7.5, 150 mM NaCl, 1% sodium deoxycholate, 1% Nonidet P40) for 30 min at 4° C. […] The complexes were washed several times with lysing buffer and finally resuspended in 20 μL SDS-PAGE charge buffer. After separation in the SDS-polyacrylamide gel, the gel was immobilised for 30 min in 30% methanol and 10% acetic acid and subsequently mixed with amplification solution (Amersham-Buchler). The gel was dried and exposed with an x-ray film.

B1: scFv C4 (anti-endoglin polypeptide C4 in the form of an scFv fragment) (scFv, not shown: small tags and cut ends)
scFv: AQVQLVQSGAEVKKPGATVKISCKVSGYTFTDYYMHWVQQAPGKGLEWMGLVDPEDGETIYAEKFQGRVTITADTSTDTAYMELSSLRSEDTAVYYCARRTTHGPDPHWGQGTLVTVSSGGGGSGGGGSGGSALDIQLTQSPSSLSASVGDRVTITCRASQSISSYLNWYQRKPGKAPKLLIYAASSLQSGVPSRFSGSGSGTDFTLTISSLQPEDFATYYCQQSYSTRTFGQGTKLEIKR
notes: also called polypeptide scFv C4; anti-endoglin-antibody
binding result: binds
